According to patent US20020199213A1 (Kyowa Kirin, published 2002):

Tests used:
CD4:Fc (human) = CD4:Fc (human) (UniProt P01730); assay: SPR, BIAcore2000, CD4:Fc immobilized by amine coupling, MAb flowed
[1] = target: T1, Human CD152 Mu-Ig fusion (Ancel # 501-820) (human, UniProt P16410 36-161); assay: ELISA of hybridoma supernatant on coated human CD152 mu-Ig fusion (assay taken from paragraph 247; the table does not explain OD)
T1 construct: Bought reagent; coated on ELISA plates at 0.2 ug/ml for hybridoma screening; also called CTLA-4; not shown: murine Ig part of the bought fusion, not described
T1 sequence (looked up): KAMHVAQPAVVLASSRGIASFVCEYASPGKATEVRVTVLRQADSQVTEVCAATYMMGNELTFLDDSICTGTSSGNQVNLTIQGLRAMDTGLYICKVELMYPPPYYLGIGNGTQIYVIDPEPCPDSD

## murine anti-CD4 MAb, Leu3a (Pharmingen) (antibody)
CD4:Fc (human)
  Ka: 3.1e+10 M⁻¹
  koff: 7.1e-06 s⁻¹
  kon: 220000 M⁻¹ s⁻¹

B1: 9C4 (antibody, V domains shown)
VH: QVQLVESGGGVVEPGRSLRLSCAASGFTFSSYGMHWVRQAPGKGLEWVAVIWYKSSEKDYADSAKGRFTISRDNSKNTLYLQMNSLRAEDTAVYYCARAGLLGYFDYWGQGTLVTVSS
VL: EIVLTQSPGTLSLSPGERATLSCRASQSLNSYLAWYQQKPGQAPRPLIYGVSSRATGIPDRFSGSGSGTDFTLTISRLEPEDFAVYYCQQYGIYPFTFGPGTKVDIK
[1]
  OD: 1.3 OD

B2: 1H5 (antibody, V domains shown)
VH: QLQLQESGPGLVKPSETLSLTCTVSGGSISNSNYYWGWIRQPPGKELEWIGSIYYTGNTYYNPSLKSRVTVSVDTSRNQFSLNLNSVIAADTAVYSCARHGFTISWSLDVWGQGTTVTVSS
VL: AIQLTQSPSSLSASVGDRVTITCRASQGISSALAWYQQKPGKAPKLLIYDASSLESGVPSRFSGSGSGTDFTLTISSLQPEDFATYYCQQFNSYLLTFGGGTKVEIK
[1]
  OD: 1.39 OD
